Reference: patent publication US20220305006

Molecular target: recombinant sAPPα, human, amino acids 19-613 (UniProt P05067)
Sequence (P05067 19-613): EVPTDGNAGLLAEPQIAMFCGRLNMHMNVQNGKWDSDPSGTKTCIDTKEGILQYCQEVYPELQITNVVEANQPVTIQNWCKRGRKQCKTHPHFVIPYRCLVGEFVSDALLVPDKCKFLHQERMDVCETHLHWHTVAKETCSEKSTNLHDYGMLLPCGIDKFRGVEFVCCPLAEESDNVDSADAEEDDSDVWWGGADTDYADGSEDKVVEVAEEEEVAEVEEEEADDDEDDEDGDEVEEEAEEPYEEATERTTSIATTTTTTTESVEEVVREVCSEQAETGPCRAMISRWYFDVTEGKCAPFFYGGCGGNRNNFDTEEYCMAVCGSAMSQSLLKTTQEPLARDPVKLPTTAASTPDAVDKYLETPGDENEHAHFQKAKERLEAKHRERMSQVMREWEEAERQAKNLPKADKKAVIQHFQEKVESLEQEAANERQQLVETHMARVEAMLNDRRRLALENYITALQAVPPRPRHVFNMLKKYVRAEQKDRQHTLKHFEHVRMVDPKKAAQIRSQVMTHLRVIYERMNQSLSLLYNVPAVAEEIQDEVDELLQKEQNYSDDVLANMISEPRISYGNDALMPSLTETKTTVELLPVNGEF

Sequence of Recombinant Human Cathepsin D (chain, as listed by the source): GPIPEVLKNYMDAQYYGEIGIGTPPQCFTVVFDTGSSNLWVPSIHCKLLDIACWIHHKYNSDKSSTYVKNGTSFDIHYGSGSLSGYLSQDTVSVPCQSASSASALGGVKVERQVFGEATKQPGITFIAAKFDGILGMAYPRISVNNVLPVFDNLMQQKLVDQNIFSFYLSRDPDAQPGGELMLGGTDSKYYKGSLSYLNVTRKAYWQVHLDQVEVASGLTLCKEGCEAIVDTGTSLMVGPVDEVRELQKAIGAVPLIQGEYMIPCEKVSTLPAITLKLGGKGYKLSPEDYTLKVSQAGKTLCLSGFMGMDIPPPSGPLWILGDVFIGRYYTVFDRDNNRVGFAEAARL

Substance: Recombinant Human Cathepsin D
- Cat D activity (fluorogenic substrate): sAPPα elicited no inhibition of Cat D activity
